Measurements: US20090010876A1, “VISFATIN AND USES THEREOF” (THE TRUSTEES OF COLUMBIA UNIVERSITY IN THE CITY OF NEW YORK, priority 2007, published 2009)

Experiments:
[1] = system: macrophages; assay: ER stress-mediated macrophage apoptosis, Alexa-488 annexin V staining; format: cell-based; conditions: pre-incubated with visfatin 24 h (FIG. 1A prints 1100 ng/ml, FIG. 1D ±100 ng/ml), then acetyl-LDL + 58035 (FC) 20 h or tunicamycin + fucoidan 24 h
Protocol: FIG. 1. […] FIG. 1A. Macrophages were pre-incubated 1100 ng/ml visfatin (vis) for 24 h and then incubated with 50 μg/ml acetyl-LDL+10 μg/ml 58035 (FC) for 20 h. Apoptosis was assayed by Alexa-488 annexin V staining (green). One representative image per condition was shown. FIG. 1B. The percentage of apoptosis was quantified (mean±SEM, n=8). FIG. 1C. Macrophages incubated in medium (con) or with visfatin (vis) for 24 h. Whole cell lysates were immunoblotted for the insulin receptor β (IRβ), SR-A, CD36 and β-actin. FIG. 1D. Macrophages were pre-incubated ±100 ng/ml visfatin (vis) for 24 h and then incubated with 5 μg/ml tunicamycin +25 μg/ml fucoidan (TN/F) for 24 h. Apoptosis was assayed and quantified as described in FIG. 1A and FIG. 1B.

[2] = system: unfolded protein response (UPR); assay: Immunoblot of UPR markers in ER-stressed macrophages; format: cell-based; conditions: for distal UPR effectors / distal UPR activation (CHOP, ATF3, XBP-1, ATF4): visfatin 24 h pre-incubation, then FC, 5 μM thapsigargin or 5 μg/ml tunicamycin 5 h, immunoblot
Protocol: FIG. 2. […] FIG. 2A. Macrophages were preincubated 1100 ng/ml visfatin (vis) for 24 h and then incubated with FC, 5 μM thapsigargin (TG), or 5 μg/ml tunicamycin (TN) for 5 h. Whole cell lysates were immunoblotted for CHOP, ATF3, and β-actin. FIG. 2B. Macrophages were pre-incubated ±100 ng/ml visfatin for 24 h and then incubated with 5 μg/ml TN for 5 h. The nuclear extracts were immunoblotted for XBP-1, ATF4, and nucleophosmin (loading control). FIG. 2C. Nuclei-free cell extracts from the above experiment were immunoblotted with antibodies against PERK, IRE1α, phospho-eIf2α, and β-actin.

[3] = system: ATF4; assay: ATF4 mRNA by RT-QPCR in FC-loaded macrophages; format: cell-based; conditions: visfatin 24 h pre-incubation, then acetyl-LDL + 58035 (FC); normalized with 36B4
Protocol: (§1) FIG. 3. […] FIG. 3A. Macrophages were preincubated ±1100 ng/ml visfatin (v) for 24 h and then incubated with 50 μg/ml acetyl-LDL+10 μg/ml 58035 (FC) for indicated times. Total RNA was extracted and subjected to RT-QPCR. The mRNA level of ATF4 was normalized with a control gene 36B4. FIG. 3B. Macrophages were pre-incubated for 24 h±100 ng/ml visfatin (vis) and then incubated for 5 h+5 μg/ml tunicamycin (TN). The cells were pulsed with [35S]methionine/cysteine in methionine-free medium for 15 min and then lysed in RIPA buffer. ATF4 was immunoprecipitated using a rabbit antibody immobilized to protein A/G beads. A normal rabbit IgG served as control. The immunoprecipitate was subjected to SDS-PAGE and autoradiography.

[4] = system: ATF4; assay: ATF4 protein synthesis, [35S]methionine/cysteine pulse and immunoprecipitation; format: cell-based; conditions: ±100 ng/ml visfatin 24 h, then 5 μg/ml tunicamycin 5 h, 15 min pulse
Protocol: as §1

[5] = system: insulin receptor; assay: CHOP immunoblot in macrophages from insulin receptor deficient and wild type mice; format: cell-based; conditions: IR−/− vs wt macrophages, ±100 ng/ml visfatin 24 h, then 5 μg/ml tunicamycin 5 h
Description: FIG. 4. […] Whole cell lysates were immunoblotted for CHOP and β-actin.

[6] = system: macrophages in mouse peritoneal cavity; assay: Acute UPR induction in mouse peritoneal macrophages in vivo, CHOP immunoblot; design: species or system Male C57/B6 mice; conditions: i.v. 5 mg recombinant visfatin, 24 h later i.p. 25 μg tunicamycin, harvest 12 h after, CHOP normalized against phospho-eIf2α
Protocol: FIG. 5. […] FIG. 5A. Male C57/B6 mice were subjected to intra-peritoneal (i.p.) injection of 1 ml of 4% thioglycolate to elicit peritoneal macrophages. Three days later, the mice were injected i.v. with 0.1 ml sterile saline ±5 mg recombinant visfatin (vis). Twenty-four hours later, these mice were injected i.p. with 0.5 ml 150 mM dextrose ±25 μg tunicamycin (TN). Twelve hours after TN injection, macrophages were harvested by peritoneal lavage and immediately lysed in RIPA buffer. The lysates were subjected to SDS-PAGE and immunoblotting for CHOP, phospho-eIf2α and β-actin. FIG. 5B. The intensity of CHOP bands were quantified and normalized against that of phospho-eIf2α.

[7] = system: atherosclerotic plaque formation; assay: Atherosclerotic plaque formation in susceptible mice on high cholesterol diet; format: in vivo; conditions: vs diluent alone, mice with reduced ApoE1 expression
Description: Recombinant visfatin polypeptides will be injected into mice susceptible to atherosclerotic plaque formation. In accordance with this prophetic example, the genome of these mice can comprise a transgenic modification wherein ApoE1 gene expression is reduced to levels that promote atherosclerosis. The mice will be continuously fed a high cholesterol diet to promote the formation of atherosclerotic lesions. One group of mice will be administered a pharmaceutically effective amount of visfatin polypeptide in a suitable diluent and another group of mice will be administered diluent alone and the incidence of atherosclerotic plaque formation will be compared between the two groups. The amount of visfatin polypeptide, the length of administration and the frequency of administration are variables that can readily be determine by an individual skilled in the art.

[8] = system: macrophages in atherosclerotic plaques; assay: Macrophage death in atherosclerotic plaques of susceptible mice; format: in vivo; conditions: vs diluent alone; mice with reduced ApoE1 expression, high cholesterol diet
Description: Recombinant visfatin polypeptides will be injected into mice susceptible to atherosclerotic plaque formation. In accordance with this prophetic example, the genome of these mice can comprise a transgenic modification wherein ApoE1 gene expression is reduced to levels that promote atherosclerosis. The mice will be continuously fed a high cholesterol diet to promote the formation of atherosclerotic lesions. One group of mice will be administered a pharmaceutically effective amount of visfatin polypeptide in a suitable diluent and another group of mice will be administered diluent alone and the amount of macrophage death in atherosclerotic plaques will be compared between the two groups. The amount of visfatin polypeptide, the length of administration and the frequency of administration are variables that can readily be determine by an individual skilled in the art.

[9] = system: ER stress related disease; assay: ER-stress related disease in susceptible mice; format: in vivo; conditions: vs diluent alone; mice susceptible to an ER-stress related disease

B1: visfatin: adipokine protein, having a molecular weight of about 52,000 daltons; polypeptide having SEQ ID NO:1 (protein, listed as Homo sapiens)
chain: MNPAAEAEFNILLATDSYKVTHYKQYPPNTSKVYSYFECREKKTENSKLRKVKYEETVFYGLQYILNKYLKGKVVTKEKIQEAKDVYKEHFQDDVFNEKGWNYILEKYDGHLPIEIKAVPEGFVIPRGNVLFTVENTDPECYWLTNWIETILVQSWYPITVATNSREQKKILAKYLLETSGNLDGLEYKLHDFGYRGVSSQETAGIGASAHLVNFKGTDTVAGLALIKKYYGTKDPVPGYSVPAAEHSTITAWGKDHEKDAFEHIVTQFSSVPVSVVSDSYDIYNACEKIWGEDLRHLIVSRSTQAPLIIRPDSGNPLDTVLKVLEILGKKFPVTENSKGYKLLPPYLRVIQGDGVDINTLQEVCVLY
- ER-stress mediated apoptosis of macrophages [1]: protects macrophages from ER-stress mediated apoptosis
- ER-stress mediated apoptosis of macrophages ([1]; listed as Visfatin): protects macrophages from ER stress-mediated apoptosis
- distal UPR effectors / distal UPR activation (CHOP, ATF3, XBP-1, ATF4) [2]: directly targets distal UPR effectors
- distal UPR effectors / distal UPR activation (CHOP, ATF3, XBP-1, ATF4) ([2]; listed as Visfatin): suppresses the distal UPR activation
- upstream UPR activators (PERK, IRE1α, phospho-eIf2α) ([2]; ±100 ng/ml visfatin 24 h, then 5 μg/ml tunicamycin 5 h, nuclei-free cell extracts): without inhibiting upstream UPR activators
- mRNA level of ATF4 [3]: intact
- translation of ATF4 / ATF4 protein synthesis [4]: halted
- translation of ATF4 / ATF4 protein synthesis ([4]; listed as Visfatin): suppresses ATF4 protein synthesis
- UPR-suppressing effect, dependence on the insulin receptor [5]: independent of the insulin receptor
- acute UPR induction in macrophages of the mouse peritoneal cavity ([6]; listed as Recombinant visfatin): suppresses the acute UPR induction of macrophages in mouse peritoneal cavity
- acute UPR induction in macrophages of the mouse peritoneal cavity ([6]; listed as recombinant visfatin): suppress acute UPR induction in macrophages of the mouse peritoneal cavity
- incidence of atherosclerotic plaque formation [7]: lower incidence of atherosclerotic plaque formation
- amount of macrophage death in atherosclerotic plaques [8]: lower amount of cell death
- incidence of the ER stress related disease [9]: lower incidence of the ER stress related disease
